According to the supplement of paper PMC10567573:

B1: RIPK4 (parent)
chain: AAWQGHLPIVKLLAKQPGVSVNAQ

Variants of: B1
Experiment: protein stability index of a GFP-peptide fusion (GPS, HEK-293T) (PSI 1-6); higher = more stable
Settings: c terminus: a fixed tail appended
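Also: lentivirally expressed fusions sorted by FACS into six bins by GFP to DsRed ratio, PSI derived from sequencing read proportions per bin multiplied by bin number.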

Variant | protein stability index
AAWQGHLPIRKLLAKQPGVSVNAQ [V10R] | 2.37
AAWQGHLPISKLLAKQPGVSVNAQ [V10S] | 2.72
AAWQGHLPIWKLLAKQPGVSVNAQ [V10W] | 3.69
AAWQGHLPILKLLAKQPGVSVNAQ [V10L] | 1.61
AAWQGHLPINKLLAKQPGVSVNAQ [V10N] | 2.1
AAWQGHLPIKKLLAKQPGVSVNAQ [V10K] | 2.23
AAWQGHLPIMKLLAKQPGVSVNAQ [V10M] | 2.64
AAWQGHLPIVKLLAKQPGVSYNAQ [V21Y] | 1.89
AAWQGHLPIVKLLAKQPGVSLNAQ [V21L] | 2.51
AAWQGHLPIVKLLAKQPGVSRNAQ [V21R] | 2.75
AAWQGHLPIVKLLAKQPGVSTNAQ [V21T] | 2.18
AAWQGHLPIVKLLAKQPGVSVPAQ [N22P] | 2.19
AAWQGHLPIVKLLAKQPGVSVFAQ [N22F] | 1.55
AAWQGHLPIVKLLAKQPGVSVRAQ [N22R] | 1.98
AAWQGHLPIVKLLAKQPGVSVTAQ [N22T] | 2.58
AAWQGHLPIVKLLAKQPGVSVWAQ [N22W] | 1.36
AAWQGHLPIVKLLAKQPGVSVHAQ [N22H] | 2.37
AAWQGHLPIVKLLAKQPGVSVQAQ [N22Q] | 1.98
AAWQGHLPIVKLLAKQPGVSVMAQ [N22M] | 2.61
AAWQGHLPIVKLLAKQPAVSVNAQ [G18A] | 2.67
AAWQGHLPIVKLLAKQPCVSVNAQ [G18C] | 1.72
AAWQGHLPIVKLLAKQPHVSVNAQ [G18H] | 2.55
AAWQGHLPIVKLLAKQPGFSVNAQ [V19F] | 1.7
AAWQGHLPIVKLLAKQPGDSVNAQ [V19D] | 3.35

Variant | protein stability index
AAWQGHLPIVKLLAKQPGLSVNAQ [V19L] | 2.04
AAWQGHLPIVKLLAKQPGWSVNAQ [V19W] | 1.61
AAWQGHLPIVKLLAKQPGTSVNAQ [V19T] | 2.46
AAWQGHLPIVKLLAKQPGSSVNAQ [V19S] | 3.22
AAWQGHLPIVKLLADQPGVSVNAQ [K15D] | 3.15
AAWQGHLPIVKLLASQPGVSVNAQ [K15S] | 2.16
AAWQGHLPIVKLLAFQPGVSVNAQ [K15F] | 2.26
AAWQGHLPIVKLLAWQPGVSVNAQ [K15W] | 2.04
AAWQGHLPIVNLLAKQPGVSVNAQ [K11N] | 2.4
AAWQGHLPIVALLAKQPGVSVNAQ [K11A] | 1.76
AAWQGALPIVKLLAKQPGVSVNAQ [H6A] | 2.54
AAWQGNLPIVKLLAKQPGVSVNAQ [H6N] | 2.2
AAWQGVLPIVKLLAKQPGVSVNAQ [H6V] | 4
AAWQGQLPIVKLLAKQPGVSVNAQ [H6Q] | 2.76
AAWQGSLPIVKLLAKQPGVSVNAQ [H6S] | 1.84
AAWQGPLPIVKLLAKQPGVSVNAQ [H6P] | 2.67
AAWQGHLPIVKPLAKQPGVSVNAQ [L12P] | 2.71
AAWQGHLPIVKNLAKQPGVSVNAQ [L12N] | 3.59
AAWQGHLPIVKRLAKQPGVSVNAQ [L12R] | 3.56
AAWQGHLPIVKWLAKQPGVSVNAQ [L12W] | 1.33
AAWRGHLPIVKLLAKQPGVSVNAQ [Q4R] | 1.89
AAWIGHLPIVKLLAKQPGVSVNAQ [Q4I] | 1.34
AAWSGHLPIVKLLAKQPGVSVNAQ [Q4S] | 2.18
AAWCGHLPIVKLLAKQPGVSVNAQ [Q4C] | 3.15

Variant | protein stability index
AAWEGHLPIVKLLAKQPGVSVNAQ [Q4E] | 2.45
AAWHGHLPIVKLLAKQPGVSVNAQ [Q4H] | 3.18
AAWQGHLPCVKLLAKQPGVSVNAQ [I9C] | 3.1
AAWQGHLPEVKLLAKQPGVSVNAQ [I9E] | 2.55
AAWQGHLPYVKLLAKQPGVSVNAQ [I9Y] | 2.45
AAWQGHLPAVKLLAKQPGVSVNAQ [I9A] | 3.49
AAWQGHLPHVKLLAKQPGVSVNAQ [I9H] | 2.47
AYWQGHLPIVKLLAKQPGVSVNAQ [A2Y] | 2.12
ASWQGHLPIVKLLAKQPGVSVNAQ [A2S] | 2.25
AMWQGHLPIVKLLAKQPGVSVNAQ [A2M] | 2.73
ACWQGHLPIVKLLAKQPGVSVNAQ [A2C] | 2.19
AAWQGHLPIVKLEAKQPGVSVNAQ [L13E] | 4.25
AAWQGHLPIVKLVAKQPGVSVNAQ [L13V] | 2.88
AAWQGHLPIVKLHAKQPGVSVNAQ [L13H] | 2.5
AAWQGHLPIVKLQAKQPGVSVNAQ [L13Q] | 4.64
AAWQGHLPIVKLSAKQPGVSVNAQ [L13S] | 2.85
AAWQGHLPIVKLRAKQPGVSVNAQ [L13R] | 3.09
AAWQGHLPIVKLLAKQPGVSVNYQ [A23Y] | 1.63
AAWQGHLPIVKLLAKQPGVSVNMQ [A23M] | 1.74
AAWQGHLPIVKLLAKQPGVSVNVQ [A23V] | 2.19
AAWQGHVPIVKLLAKQPGVSVNAQ [L7V] | 2.65
AAWQGHMPIVKLLAKQPGVSVNAQ [L7M] | 2.33
AAWQGHTPIVKLLAKQPGVSVNAQ [L7T] | 2.29
AAWQGHRPIVKLLAKQPGVSVNAQ [L7R] | 5.04

Variant | protein stability index
AAWQGHNPIVKLLAKQPGVSVNAQ [L7N] | 3.36
AADQGHLPIVKLLAKQPGVSVNAQ [W3D] | 3.85
AALQGHLPIVKLLAKQPGVSVNAQ [W3L] | 2.42
IAWQGHLPIVKLLAKQPGVSVNAQ [A1I] | 1.95
LAWQGHLPIVKLLAKQPGVSVNAQ [A1L] | 1.05
DAWQGHLPIVKLLAKQPGVSVNAQ [A1D] | 3.41
MAWQGHLPIVKLLAKQPGVSVNAQ [A1M] | 1.98
EAWQGHLPIVKLLAKQPGVSVNAQ [A1E] | 2.24
AAWQGHLPIVKLLAKQPGVSVNAP [Q24P] | 1.89
AAWQGHLPIVKLLAKQPGVSVNAH [Q24H] | 1.93
AAWQGHLPIVKLLAKQPGVSVNAN [Q24N] | 2.39
AAWQGHLPIVKLLAKQPGVSVNAW [Q24W] | 1.58
AAWQGHLPIVKLLAKQPGVSVNAV [Q24V] | 3.06
AAWQGHLPIVKLLAKQPGVSVNAS [Q24S] | 2.69
AAWQGHLPIVKLLAKQPGVSVNAI [Q24I] | 1.61
AAWQGHLPIVKLLGKQPGVSVNAQ [A14G] | 2.72
AAWQGHLPIVKLLMKQPGVSVNAQ [A14M] | 2.07
AAWQGHLPIVKLLTKQPGVSVNAQ [A14T] | 2.42
AAWQGHLPIVKLLSKQPGVSVNAQ [A14S] | 2.72
AAWQDHLPIVKLLAKQPGVSVNAQ [G5D] | 2.94
AAWQYHLPIVKLLAKQPGVSVNAQ [G5Y] | 2.89
AAWQNHLPIVKLLAKQPGVSVNAQ [G5N] | 3.7
